Numbering of substitutions follows the chain as printed.
Tests used:
[1] = biological target: T1, recombinant mouse NKG2D-Fc fusion protein (mouse; human, UniProt O54709 90-232); assay: competition ELISA: plate-bound mouse Rae-1 delta-Fc, mouse NKG2D-Fc-biotin in solution; blocked ligand Rae-1 delta
T1 construct: extracellular domain; also called Mouse NKG2D-Fc-biotin; not shown: human IgG1 Fc domain
T1 sequence (looked up): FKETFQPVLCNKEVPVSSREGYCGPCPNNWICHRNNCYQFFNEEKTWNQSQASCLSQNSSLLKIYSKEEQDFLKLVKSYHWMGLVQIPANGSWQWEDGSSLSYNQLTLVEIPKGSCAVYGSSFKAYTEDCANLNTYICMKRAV
Method: Recombinant mouse Rae-1 delta-Fc (R&D Systems, Minneapolis, Minn.) was adsorbed to wells of a microplate, and the wells were blocked with bovine serum albumin to reduce non-specific binding. Mouse NKG2D-Fc-biotin was added to the wells followed by NKG2D-binding domains. After incubation and washing, NKG2D-Fc-biotin that remained bound to Rae-1delta-Fc coated wells was detected using streptavidin-HRP and TMB substrate. Absorbance was measured at 450 nm and corrected at […]. After subtracting background, specific binding of NKG2D-binding domains to the NKG2D-Fc proteins was calculated from the percentage of NKG2D-Fc-biotin that was blocked from binding to the Rae-1delta-Fc coated wells.

[2] = biological target: T2, recombinant cynomolgus NKG2D-Fc fusion protein (cynomolgus; human, UniProt P61252 73-216); assay: ELISA, plate-bound recombinant cynomolgus NKG2D-Fc, anti-human kappa-HRP/TMB
T2 construct: extracellular domain; not shown: human IgG1 Fc domain
T2 sequence (looked up): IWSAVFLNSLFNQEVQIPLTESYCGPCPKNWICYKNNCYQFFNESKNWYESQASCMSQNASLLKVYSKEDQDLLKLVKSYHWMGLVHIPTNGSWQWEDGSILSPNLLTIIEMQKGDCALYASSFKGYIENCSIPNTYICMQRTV
Text: (§1) The nucleic acid sequences of human, mouse or cynomolgus NKG2D ectodomains were fused with nucleic acid sequences encoding human IgG1 Fc domains and introduced into mammalian cells to be expressed. After purification, NKG2D-Fc fusion proteins were adsorbed to wells of microplates. After blocking the wells with bovine serum albumin to prevent non-specific binding, NKG2D-binding domains were titrated and added to the wells pre-adsorbed with NKG2D-Fc fusion proteins. Primary antibody binding was detected using a secondary antibody which was conjugated to horseradish peroxidase and specifically recognizes a human kappa light chain to avoid Fc cross-reactivity. 3,3′,5,5′-Tetramethylbenzidine (TMB), a substrate for horseradish peroxidase, was added to the wells to visualize the binding signal, whose absorbance was measured at 450 nm and corrected at […]. An NKG2D-binding domain clone, an isotype control or a positive control (comprising heavy chain and light chain variable domains selected from SEQ ID NOs:101-104, or anti-mouse NKG2D clones MI-6 and CX-5, eBioscience, San Diego, Calif.) was added to each well.

[3] = biological target: T1, recombinant mouse NKG2D-Fc fusion …; assay: ELISA, plate-bound recombinant mouse NKG2D-Fc, anti-human kappa-HRP/TMB
Text: as §1

[4] = biological target: T3, recombinant human NKG2D-Fc fusion protein (human, UniProt P26718 73-216); assay: ELISA, plate-bound recombinant human NKG2D-Fc, anti-human kappa-HRP/TMB
T3 construct: extracellular domain; also called NKG2D-Fc-biotin; not shown: human IgG1 Fc domain
T3 sequence (looked up): T2 sequence (looked up) with N43D, I133T
Text: as §1

[5] = biological target: T3, recombinant human NKG2D-Fc fusion …; assay: competition ELISA: plate-bound human NKG2D-Fc, saturating ULBP-6-His-biotin as blocked ligand, streptavidin-HRP
Method: Recombinant human NKG2D-Fc proteins were adsorbed to wells of a microplate, and the wells were blocked with bovine serum albumin to reduce non-specific binding. A saturating concentration of ULBP-6-His-biotin was added to the wells, followed by addition of the NKG2D-binding domain clones. After a 2-hour incubation, wells were washed and ULBP-6-His-biotin that remained bound to the NKG2D-Fc coated wells was detected by streptavidin-conjugated to horseradish peroxidase and TMB substrate. Absorbance was measured at 450 nm and corrected at […]. After subtracting background, specific binding of NKG2D-binding domains to the NKG2D-Fc proteins was calculated from the percentage of ULBP-6-His-biotin that was blocked from binding to the NKG2D-Fc proteins in wells.

[6] = biological target: recombinant human DLL4 (human, UniProt Q9NR61 27-524, limits assumed); assay: ELISA, plate-bound recombinant human DLL4 (0.5 µg/mL), anti-mouse IgG-HRP/TMB, % of positive control max
Method: (§2) To investigate the binding of anti-DLL3 antibodies to human DLL3, wells of high binding flat-bottom plates were coated with recombinant human DLL3 diluted to 0.5 μg/ml. To assess cross-reactivity of the antibodies to DLL1/DLL4, which are closely related family members to DLL3, plates were coated with recombinant human DLL1 diluted to 1 μg/ml, or human DLL4 diluted to 0.5 μg/ml. […] Binding was detected using anti-mouse IgG-HRP and 3,3′,5,5′-Tetramethylbenzidine (TMB) substrate. Signals were normalized to the corresponding positive control antibody.

[7] = biological target: T4, extracellular domain (ECD) of human DLL3 (AdipoGen Life Sciences) (human, UniProt Q9NYJ7 27-492); assay: SPR (Biacore 8K), 37 C, antibody captured on anti-mouse Fc, DLL3 ECD injected, 1:1 fit; off rate beyond instrument sensitivity
T4 construct: Bought and further purified by size exclusion chromatography; also called hDLL3 ECD; DLL3 ECD
T4 sequence: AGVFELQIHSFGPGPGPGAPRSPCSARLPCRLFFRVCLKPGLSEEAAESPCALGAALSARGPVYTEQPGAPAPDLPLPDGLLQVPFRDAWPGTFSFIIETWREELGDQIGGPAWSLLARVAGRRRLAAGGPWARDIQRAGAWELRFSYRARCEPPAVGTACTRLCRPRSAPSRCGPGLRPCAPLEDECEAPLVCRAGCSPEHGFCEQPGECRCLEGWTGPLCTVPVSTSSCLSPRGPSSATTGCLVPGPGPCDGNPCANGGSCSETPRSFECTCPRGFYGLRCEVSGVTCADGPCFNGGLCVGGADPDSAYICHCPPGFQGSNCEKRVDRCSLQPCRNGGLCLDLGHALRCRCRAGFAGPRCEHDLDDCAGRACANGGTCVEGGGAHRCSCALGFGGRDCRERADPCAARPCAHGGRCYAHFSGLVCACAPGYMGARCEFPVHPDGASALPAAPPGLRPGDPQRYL
Text: (§3) The binding kinetics of different anti-DLL3 antibodies to recombinant proteins of different domains of human DLL3 were studied by surface plasmon resonance (SPR) using a Biacore™ 8K instrument. These anti-DLL3 antibodies were produced from mouse hybridomas, and each included a heavy chain variable region and light chain variable region described herein. Briefly, antibodies recognizing human IgG Fc and antibodies recognizing mouse IgG Fc were immobilized on different channels of a Biacore™ 8K chip to allow simultaneous analysis of human and murine anti-DLL3 antibodies. Murine anti-DLL3 antibodies were captured on the anti-mouse Fc channel of the Biacore chip. The human anti-DLL3 antibody from Stemcentrx (San Francisco, Calif.) was used as a control and was captured onto anti-human Fc channel of the Biacore™ chip. Different concentrations of DLL3 ECD, DLL3 N-terminal domain, EGF2-6, EGF3-6, EGF4-6, or EGF5-6 domains of DLL3 were injected. Experiments were performed at 37° C. Biacore™ 8K evaluation software was used for all data analysis. To obtain kinetic rate constants double-referenced data were fit to a 1:1 interaction model using Biacore™ 8K Evaluation software (GE Healthcare, Marlborough, Mass.). The equilibrium binding constant KD was determined by the ratio of binding rate constants kd/kₐ.
(§4) Table 36 lists the calculated binding kinetics (KD). […]

[8] = biological target: T4, extracellular domain (ECD) of human …; assay: SPR (Biacore 8K), 37 C, antibody captured on anti-mouse Fc, DLL3 ECD injected, 1:1 fit; approximate
Text: as §3, §4

[9] = biological target: T5, recombinant human DLL3 (ELISA coat) (human, UniProt Q9NYJ7 27-492); assay: ELISA, plate coated with recombinant human DLL3 0.5 µg/ml, anti-mouse IgG-HRP
T5 sequence: T4 sequence
Method: as §2
Table 38 lists the calculated EC₅₀ based on the binding data from FIG. 24.

[10] = biological target: T4, extracellular domain (ECD) of human …; assay: SPR (Biacore 8K), 37 C, antibody captured on anti-mouse Fc, DLL3 ECD injected, 1:1 fit
Text: as §3
Table 36 lists the calculated binding kinetics (KD). […] Stemcentrx anti-DLL3 antibody was used as a control.

[11] = biological target: T6, recombinant human DLL1 (human, UniProt O00548 18-540, limits assumed); assay: ELISA, plate-bound recombinant human DLL1 (1 µg/mL), anti-mouse IgG-HRP/TMB, % of positive control max
T6 sequence (looked up): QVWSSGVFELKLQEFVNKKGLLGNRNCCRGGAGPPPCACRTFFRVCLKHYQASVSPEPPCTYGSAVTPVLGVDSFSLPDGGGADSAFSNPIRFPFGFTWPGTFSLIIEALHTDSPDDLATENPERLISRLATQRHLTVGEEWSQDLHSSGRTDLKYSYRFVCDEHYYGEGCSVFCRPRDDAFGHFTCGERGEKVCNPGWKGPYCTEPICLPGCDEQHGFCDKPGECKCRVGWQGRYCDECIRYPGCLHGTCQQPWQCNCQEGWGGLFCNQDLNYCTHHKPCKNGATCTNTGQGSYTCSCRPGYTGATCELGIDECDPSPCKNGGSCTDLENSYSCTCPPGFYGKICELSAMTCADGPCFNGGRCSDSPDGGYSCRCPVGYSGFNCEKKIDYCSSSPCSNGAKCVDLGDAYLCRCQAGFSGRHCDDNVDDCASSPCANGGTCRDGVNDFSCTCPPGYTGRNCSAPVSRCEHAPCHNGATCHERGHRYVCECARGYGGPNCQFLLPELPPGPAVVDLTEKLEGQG
Method: as §2

Chain of recombinant human DLL4 (Q9NR61 27-524 limits assumed): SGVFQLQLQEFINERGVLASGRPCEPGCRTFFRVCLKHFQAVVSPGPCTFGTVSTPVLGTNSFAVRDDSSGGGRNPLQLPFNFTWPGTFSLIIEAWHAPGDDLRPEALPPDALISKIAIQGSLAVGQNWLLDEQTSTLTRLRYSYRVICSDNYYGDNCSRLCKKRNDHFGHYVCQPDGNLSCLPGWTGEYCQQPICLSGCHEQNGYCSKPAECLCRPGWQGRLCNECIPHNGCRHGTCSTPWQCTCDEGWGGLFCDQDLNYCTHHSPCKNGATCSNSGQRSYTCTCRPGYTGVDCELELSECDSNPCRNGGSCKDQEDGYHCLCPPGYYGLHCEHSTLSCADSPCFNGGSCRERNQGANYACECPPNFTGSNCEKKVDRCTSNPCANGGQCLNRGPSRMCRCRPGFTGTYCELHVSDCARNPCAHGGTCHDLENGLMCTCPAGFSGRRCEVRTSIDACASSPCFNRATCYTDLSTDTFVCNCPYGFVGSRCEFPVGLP

B1: ADI-27743 (antibody, V domains shown)
VH: QVQLQQWGAGLLKPSETLSLTCAVYGGSFSGYYWSWIRQPPGKGLEWIGEIDHSGSTNYNPSLKSRVTISVDTSKNQFSLKLSSVTAADTAVYYCARARGPWSFDPWGQGTLVTVSS
VL: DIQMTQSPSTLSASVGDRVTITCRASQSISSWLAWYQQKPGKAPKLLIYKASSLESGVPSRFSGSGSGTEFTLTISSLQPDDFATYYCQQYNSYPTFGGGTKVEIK
What does the source list for B1?
IC50 (read off the curve) [1]: ~20 nM; EC50 (read off the curve) [2]: ~0.3 nM; EC50 (read off the curve) [3]: ~0.2 nM; EC50 (read off the curve) [4]: ~0.3 nM; IC50 (read off the curve) [5]: ~2 nM

B2: anti-DLL3 antibody clone 2F7 (antibody, V domains shown)
VH: QVQLQQSGAELMKPGASVKLSCKATGYTFTGYWIDWIKQRPGHGLEWVGEILPGSDNINYNEKFRGKATFTADTSSNTAYIQLSSLTTEDSAIYFCARCGTGPWFTYWGQGTLVTVSA
VL: NIMMTQSPSSLAVSAGEKVTMSCKSSQSVLYSSNQKNYLAWYQQKPGQSPRLLIYWASTRASGVPDRFTGSGSGTDFTLTITNIQPEDLAVYYCHQFLSSTWTFGGGTKLEIK
notes: Murine antibody produced from a mouse hybridoma
What does the source list for B2?
binding result [6]: no binding; koff [7]: ~1.15e-06 s⁻¹; Kd [8]: < 0.011 nM; EC50 [9]: 0.3 nM; kon [10]: 72100 M⁻¹ s⁻¹; binding result [11]: no binding

B3: anti-DLL3 antibody clone 2H6 (antibody, V domains shown)
VH: QIQLVQSGPELKKPGETVKISCKASGYTFTTYGVNWVKQAPGKGLKWMGWINTYSGVPTYADDFKGRFAFSLETIATTAYLQINNLKNEDTATYFCARFGNYGFDYWGQGTTLTVSS
VL: DIVMTQSPSSLSVSAGEKVTMSCKSSQSLVNSGNQKNYLAWYQQKPGQPPKLLISGASTRESGVPDRFTGSGSGTDFTLTISSVQAEDLAVYYCQNDHNYPYTFGGGTKLEIK
notes: Murine antibody from a mouse hybridoma
Does B3 bind [6]?
Result: no binding

And the EC50 [9]?
Its EC50 is 0.06 nM.

Does B3 bind [11]?
Result: no binding

Reference: US20210221894A1 (DRAGONFLY THERAPEUTICS, published 2021)
